Data as given in the DeepSol protein solubility set.

Experiment: soluble on expression in E. coli; label from the status in PepcDB or PDB records

Sequence | soluble on expression in E. coli
MGSDKIHHHHHHMRISYGVENLRSLTRTPEIELRPITILIGRNSAGKSTYLRSFALMRQSLEVKSSAPILWYGDYVDFGDFDAAVSNGDKDSDITFNFRVEDLDTRDVEDEIYYYNEYAYRSSRRKISYQAVSLSISLGEQLRRTVRRRIALEIPEDRISAVASFEKDGRECSDFQINGQRLSDLIPNVAVYFRASDIFDRPVLVRQVRKDGKSLRRVVGAASEIGSAISQRLRQQVDKRISEENLAIEARRILNHPRLDPTSLQQLRLRAGNRSFRKLYDRWLKDEASTTLAEIDHLCALNHALITVGRVSSVLKGFFRNTTYLGPARARSERYYRSQELEVSEISPDGQNLPMFLASLSTTEQGRFSDWVEEAFGFGVLVERKEGHVSIKLRQRTISVNVADTGYGVSQILPVLAQIWWATQIPRNYTRQMRHGLRPITMEQPELHLHPAHQAKLADVFQSAIERSNASGPEAVLLIETHSEALINRLGELIEYGKIAANDVQVVIFSARGEGEELNTEISTSTFDDNGALRDWPYGFFNY | not soluble
MAHHHHHHMQQLEQELSLRQSAIETREQQLEMVQLDGARGREAIMRERHSIEEVRRTVRVERCRQRRLWIHQIKEMNAKVLEQVRLLAEERKKNCEQATAKEDAAERAFAADIKMIEEYLPKLISLEDIPVNPEETDIIRRQFDEVFTQGEQTYLASAEEEQARKERLGRGLEVYRQRMLDDYVGKENGKLHDAEATERHLSSVVDQVLN | not soluble
MGSETKHSAKVKIVTRESPPSAKEHMRPTKTQILVPPTQSLPNGKKPNFGKSTKQRREPRERTSKTGHEDDKATMVTVNIDAFLHDKAPKKKSCKYKKKKTRQYQDRAAASIDSKPHVAGHTAFAGASFTTDIPHEAALPKPSFV | soluble
PFKEVSPNSFLLDDSHALSQLLKKSYRWYSPVFSPRNVPRFADVSSITESPETLKAIRDFLVQRYRAMSPAPTHILGFDARGFLFGPMIAVELEIPFVLMRKADKNAGLLIRSEPYEKEYKEAAPEVMTIRYGSIGKGSRVVLIDDVLATGGTALSGLQLVEASDAVVVEMVSILSIPFLKAAEKIHSTANSRYKDIKFISLLSDDALTEENCGDSKNYTGPRVLSCGDVLAEHPH | soluble
MSGKLYICPTPIGNLEDITYRTLRTLKEVDLIAAEDTRHSIKLLNHFEISKPLTSYHEHNKDSKGDYLINKLIDGENIALISDAGMPGISDPGEEIIKQAIQNNIEIEVLPGA | not soluble
MAHHHHHHMKAASAAAPAAQTKAAAEAKAATATTAASSLSLSLLQYGASLYEAHTHLPEAAVARLPLNRYADYLRHFGFSMERESRGAAAPGTTLALDCTSPNHKTQAPLDGRWGKRVETDTSYDPVEVAGWGLPEALRCEADQQCNAVGSLSDATEWSAIAKQLVHPFMSVTWRQTATQCTMKKACCVYMWLCSHMTLQVSVPGAEEDAKEDSGGVSTVGLPSAAKAASLARKANRPARKVKEVPTTLEPAAPPDPLLVALQTRRAPAPVLADVYMHMLTSVGVLCEVVVGQLKGAAPEEAFEWSWNMVTVDGRQYLVDVSAALSNGVLRSAASYSDVPSSVAVPEAGKGQRAGNAAGRGKAATPSQSSPPAGSGAVPCSESVQLLPVTPERLRREFFFFAHPTYFLASHFPADPAKALVRTAMRAVQWGVRPRLTPAFYYYGLQLASHKTHSTFAASGSPSYVSFVNHHASTTELCCALYMGTLGTLPEDLSQTAPLGAEWVWHQREESTSTDTFTLTVPQAGYYVVVIGARPIRADPYSAVFTVAGETAFTPVVSYEMRVGFTPSSSPVLPRQYLSPSICRLITPLCSQILPGKHTFCVMPSCSNVLAVAVVKFVAAAATRTLLSLLPFQPRSAAFEGDVDVRSGECVEVWVLYGAPDRNGQELSQRAAAAAPPKAAATPCRSPTPAAKFKAADKKKREASAEHQQQLSALESQLAHLTQALHKGEVFQRCVGGIEVRHFVSPAVVGVIQPQPMVEQEQSITLRRLAGVTDALLREAEEVVRRQPAPVGSYFGAVEAAAAKS | not soluble
MSVASNRDAVVTARRRFFGEGRSVDGMLAAPILRSWQRCAGQGLDASRSPLVEPPTARELREFQERHDRLGRLARPELNALQGDARLTGSVVILTDAAGVVLDMIGSDEFAGRAAQVALRPGVSWSEADTGTNAIGTALVERQPIAVHGAEHFFERHRILACAAAPLIDPRGVVAGALDMTGPAAIRHVHALGLMRLAAEQIEHRFFTEGFEHCTMLRLHTDRALLGTPREGVLAFADGVLVGANRHGLDLMNLDWPALDLARLETLLPGVRPSDQIQMLRGPRGTRLWGRLVDPLRRSPRAPAASMPAAVPAAPAGEVEPILDAEMMAQLSRTVRLVEAGIPVLLLGETGSGKDVFARRVHAESARRNKPFVPVNCAALPEGLIESELFGYEAGAFTGARRQGAPGLLRQADGGVLFLDEIGDMPLSLQSRLLRVLQDKQISPLGGGRPVPVDFALICATHQPLGTLLAAGAFRQDLYFRIAQYVVERPPVRHHPDRLALVRTLWRQLGGEDAGVQLSAEVERVLAAYNWPGNYRQLVGTLRALLVLGEPGHPVEVAALPAEITAAAGAVESQVSEMLPGTSLAEQTRSVLQAALDASGGNVSRAARRLGIDRSTYYRRLLKDKDRGR | not soluble
MIELHQKRLSAPKTYKIPRKVSKWVVKPSPGPHNKEAIPLLVLVRDFLELADTGREARRIISAGEILVDGVVRKDYKFPVGLFDVVTIPKLEKSYRILFDEKGRYIPKEVEDADLKLYKITNKTLVRGGKVQLNLFDGTNILGSNDYKTKDSILLRIPEKEVVDHLKFEEGALVMITGGTHAGEIGRIKSYKIVRSSAPNLVTVEGEERDITTIEDYVFVVGKKDSDKPVIDLGVLEHHHHHH | soluble
MGSDKIHHHHHHMMGLPTLEQMQFQHAAAQLNALHAELIDDDRLEEWPDLFEEKCQYSVISAENHNRSLNLAAVFCDSRGMLVDRIVSLRRANIFPAHSYRHILGPTRVKSTSGQIVTTQTNYVVLMTRNDGQTSIYNSGKYVDQIDVSGAAPRFLSKTAIFDTHLIDTMMVRPI | not soluble
MNAGILGVGKYVPEKIVTNFDLEKIMDTSDEWIRTRTGIEERRIARDDEYTHDLAYEAAKVAIKNAGLTPDDIDLFIVATVTQEATFPSVANIIQDRLGAKNAAGMDVEAACAGFTFGVVTAAQFIKTGAYKNIVVVGADKLSKITNWDDRTTAVLFGDGAGAVVMGPVSDDHGLLSFDLGSDGSGGKYLNLDENKKIYMNGREVFRFAVRQMGEASLRVLERAGLEKEDLDLLIPHQANIRIMEASRERLNLPEEKLMKTVHKYGNTSSSSIALALVDAVEEGRIKDNDNVLLVGFGGGLTWGALIIRWGK | not soluble
MGSDKIHHHHHHMTKKILFCATVDYHFKAFHLPYFKWFKQMGWEVHVAANGQTKLPYVDEKFSIPIRRSPFDPQNLAVYRQLKKVIDTYEYDIVHCHTPVGGVLARLAARQARRHGTKVLYTAHGFHFCKGAPMKNWLLYYPVEKWLSAYTDCLITINEEDYIRAKGLQRPGGRTQKIHGIGVNTERFRPVSPIEQQRLREKHGFREDDFILVYPAELNLNKNQKQLIEAAALLKEKIPSLRLVFAGEGAMEHTYQTLAEKLGASAHVCFYGFCSDIHELIQLADVSVASSIREGLGMNVLEGMAAEQPAIATDNRGHREIIRDGENGFLIKIGDSAAFARRIEQLYHKPELCRKLGQEGRKTALRFSEARTVEEMADIYSAYMDMDTKEKSV | not soluble
MGSDKIHHHHHHNVYSLPANGGRLIGELQTHVVEKGDYFKTIADKYNIGILELMETNPGVDPFLPTPGTQLVIPTQMLLPDVPRKGIVINLPELRLYYFPKNGREVHVFPVGIGRIGRETPEMTTKIKARIPNPSWTPPASLRAEHLRERGEVLPPVVPAGPDNPLGKYAMQLSYGDGSYLIHGTNKDFGIGMRVSAGCIRLNPDDIEWLFHQAKYGDSVRVINQTVKIATEPDGRQIIEVHSPLSKTEDQPREKVISLSSKVVKFISQESVDNTKANDALLTQNGIPMVISHPPLTAAQDLEITP | not soluble
